According to patent publication US20240369485A1, “FLUORESCENT SENSOR FOR MONITORING CALCIUM DYNAMICS” (priority 2021, published 2024):

Columns and labels:
[1] = Calcium (Ca^2+) binding assay: fluorescence/absorbance titration of purified protein
Experimental: Calcium (Ca^2+) binding assay. 10 μM protein samples of mApple, EGFP, and mCherry variants were titrated with different concentrations of Ca^2+. Data were fitted with a 1:1 binding equation. Fluorescence intensities were collected using a Spectrofluorimeter (Photon Technology International, Inc.) and the absorbance values of Ca^2+-free and Ca^2+-loaded forms were determined using a Shimadzu UV-1601 spectrophotome.
Ca^2+ binding assay. Fluorescence measurements of mApple variants with increasing Ca^2+ concentrations were done in order to obtain the affinity of the sensor for Ca^2+ in vitro. Samples of 10 μM mApple variants with 5 μM EGTA were prepared in triplicate in 1 mL volumes in 10 mM Tris, pH 7.4. The samples were placed in quartz fluorescence cuvettes, and metal ion was titrated into each sample, in a stepwise manner, using 0.1 M and 1 M metal stock solutions. The fluorescence response of the indicator to increasing Ca^2+ concentrations was monitored using a fluorescence spectrophotometer (Photon Technology International, Canada) with the Felix32 fluorescence analysis software. The absorbance spectra before and after titration were obtained using a Shimadzu UV-1601 spectrophotometer.

[2] = test system: HeLa cells; experiment: Epifluorescence imaging of mitochondria Ca^2+ dynamics; type: cell-based; details: 100 μM histamine
Experimental: Cell culture and transfection. HeLa cells were cultured and maintained in DMEM supplemented with 10% FBS and high glucose (4.5 g/L) at 37° C. Individual plasmids were transfected into cells using Lipofectamine 3000 (Life Technologies), following the manufacturer's instructions. Seed cells onto sterilized 22 mm×40 mm glass microscope slides in 6 cm dishes until about 70% confluency, the day of transfection. The next day, 2 μg of plasmid were mixed with transfection reagent in the reduced serum media Opti-MEM for 4-6 h at 37° C. The media was then replaced with 3 mL of fresh DMEM and incubated at 37° C. for 48 h.
Epifluorescence imaging of mitochondria Ca^2+ dynamics. The coverslips with HeLa Cells transfected with mitochondria indicators were mounted on a bath chamber and placed on the stage of a Leica DM6100B inverted microscope with a Hamamatsu cooled EM-CCD camera and illuminated with a Till Polychrome V Xenon lamp. Cells were illuminated at 569 nm, in real-time. Fluorescence images of samples were recorded as the concentration of ER Ca^2+ was perturbed by perfusion of 100 μM histamine.

Fmax/Fmin ([1]; EGFP and mApple variants): 3.80 | Aholo/Aapo ([1]; absorbance at 569): 1.60 (569) | Kd ([1]; in vitro, purified protein, read-out: Kd for Ca^2+ binding): 290 ± 20 µM
B1: mApple A145E/K198D/R216E: mApple variant, SEQ ID NO: 25; starting point of mitochondria indicator (protein)
chain: EENNMAIIKEFMRFKVHMEGSVNGHEFEIEGEGEGRPYEAFQTAKLKVTKGGPLPFAWDILSPQFMYGSKVYIKHPADIPDYFKLSFPEGFRWERVMNFEDGGIIHVNQDSSLQDGVFIYKVKLRGTNFPSDGPVMQKKTMGWEESEERMYPEDGALKSEIKKRLKLKDGGHYAAEVKTTYKAKKPVQLPGAYIVDIDLDIVSHNEDYTIVEQYEEAEGRHSTGGMDELYK
fluorescence intensity change of mitochondria targeted indicator [2]: no fluorescence change was observed
